Measured values taken from patent publication US20090136936A1.
Where “and” joins values, the source holds several entries; their conditions need not be identical. Identical values can stand only once. Like-named read-outs stand apart in the source and are kept apart here. Blank lines part the entries; values can stand above or below the substance they belong to.

Legend:
[1] = molecular target: PA-FITC (PA antigen of Bacillus anthracis) (Bacillus anthracis) (UniProt P13423)
[2] = molecular target: extracellular domain of glycosylated FcγRIIa (R&D systems), FITC-labeled (human) (UniProt P12318); test: flow cytometry of spheroplasts displaying the Fc, labelled with FcγRIIa-FITC
Sequence of extracellular domain of glycosylated FcγRIIa (R&D systems), FITC-labeled (human) (P12318 34-217): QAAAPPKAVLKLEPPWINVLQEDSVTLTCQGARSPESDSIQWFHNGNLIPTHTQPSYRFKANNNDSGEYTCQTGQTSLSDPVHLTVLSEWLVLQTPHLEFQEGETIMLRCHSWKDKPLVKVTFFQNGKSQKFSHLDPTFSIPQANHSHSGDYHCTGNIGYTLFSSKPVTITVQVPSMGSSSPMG

[3] = molecular target: Recombinant human FcγRI/CD64, extracellular domain, glycosylated (human) (UniProt P12314); test: flow cytometry of spheroplasts displaying the Fc clone, labelled with FcγRIa-FITC; the value is repeated on D00019 and D00020
Sequence of Recombinant human FcγRI/CD64, extracellular domain, glycosylated (human) (P12314 16-292): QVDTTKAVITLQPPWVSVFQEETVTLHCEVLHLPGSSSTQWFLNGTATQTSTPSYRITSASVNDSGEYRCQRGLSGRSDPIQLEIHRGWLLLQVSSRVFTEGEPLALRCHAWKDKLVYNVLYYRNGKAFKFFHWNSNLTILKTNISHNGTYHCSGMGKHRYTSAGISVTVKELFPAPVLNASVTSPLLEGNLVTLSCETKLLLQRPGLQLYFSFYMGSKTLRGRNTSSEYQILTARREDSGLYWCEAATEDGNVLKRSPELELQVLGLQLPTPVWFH

[4] = molecular target: Protein A-FITC (Staphylococcus aureus) (UniProt P38507)
[5] = molecular target: Protein A-FITC (Staphylococcus aureus) (UniProt P38507); remark: listed apart in the source
[6] = molecular target: Protein A-FITC (Staphylococcus aureus) (UniProt P38507); test: flow cytometry (FL1-Height) of spheroplasts labelled with Protein A-FITC; medium 'TB, 0.5M Soribitol'
[7] = molecular target: Protein A-FITC (Staphylococcus aureus) (UniProt P38507); test: flow cytometry (FL1-Height) of spheroplasts labelled with Protein A-FITC; medium TB
[8] = molecular target: Protein A-FITC (Staphylococcus aureus) (UniProt P38507); test: flow cytometry (FL1-Height) of E. coli spheroplasts labelled with Protein A-FITC; APEx displayed Fc [panel a]
[9] = molecular target: Protein A-FITC (Staphylococcus aureus) (UniProt P38507); test: flow cytometry (FL1-Height) of spheroplasts labelled with Protein A-FITC; medium TB, 0.5M Trehalose
[10] = molecular target: Protein A-FITC (Staphylococcus aureus) (UniProt P38507); test: flow cytometry (FL1-Height) of E. coli spheroplasts labelled with Protein A-FITC; no Fc expressed [panel a]
[11] = molecular target: Protein A-FITC (Staphylococcus aureus) (UniProt P38507); test: flow cytometry (FL1-Height) of E. coli spheroplasts labelled with Protein A-FITC; one plasmid, no cJun(Cys) anchor co-expressed [panel b]
[12] = molecular target: Protein A-FITC (Staphylococcus aureus) (UniProt P38507); test: flow cytometry (FL1-Height) of E. coli spheroplasts labelled with Protein A-FITC; Fc-cFos(Cys) co-expressed with the inner-membrane anchor NlpA-cJun(Cys)-FLAG; the same histogram stands in both panels [panels a and b]
[13] = molecular target: Protein A-FITC (Staphylococcus aureus) (UniProt P38507); test: flow cytometry (FL1-Height) of E. coli spheroplasts labelled with Protein A-FITC; one plasmid, no cJun anchor co-expressed [panel b]
[14] = molecular target: Protein A-FITC (Staphylococcus aureus) (UniProt P38507); test: flow cytometry (FL1-Height) of E. coli spheroplasts labelled with Protein A-FITC; Fc-cFos co-expressed with the inner-membrane anchor NlpA-cJun-FLAG [panel a]
[15] = molecular target: Recombinant human FcγRI/CD64, extracellular domain, glycosylated (human) (UniProt P12314); test: SPR (BIAcore 3000), FcγRIa immobilized on CM-5

Substance: 26-10 IgG1 (anti-digoxin) (antibody)
Mn (mean fluorescence intensity) [1]: 13.9

Substance: 26-10 scAb (anti-digoxin)
Mn (mean fluorescence intensity) [1]: 14.7

Substance: 26-10 scFv (anti-digoxin)
Mn (mean fluorescence intensity) [1]: 16.3

M (mean fluorescence intensity) [2]: 66.7
Substance: Fc5 (E382V, M428I), aglycosylated Fc mutant (from UniProt P0DOX5 223-449)

FACS mean value [3]: 391
Substance: Fc117 (E382V, M428I, Y436A), aglycosylated Fc mutant (from UniProt P0DOX5 223-449)

Substance: M18 scFv (PelB fused, anti-PA)
M (mean fluorescence intensity) [4]: 43 | M (mean fluorescence intensity) [5]: 40 and 62.9

Substance: M18.1 humanized IgG1 (antibody)
Mn (mean fluorescence intensity) [1]: 164

Substance: M18.1 humanized scAb
Mn (mean fluorescence intensity) [1]: 277

Substance: M18.1 humanized scFv
Mn (mean fluorescence intensity) [1]: 313

Mn (mean fluorescence intensity) [6]: 1290 | Mn (mean fluorescence intensity) [7]: 1080 | Mn (mean fluorescence intensity) [8]: 2410 | Mn (mean fluorescence intensity) [9]: 3130
Substance: NlpA-Fc-His

Substance: NlpA-cJun(Cys)-FLAG
Mn (mean fluorescence intensity) [10]: 111

Mn (mean fluorescence intensity) [11]: 879 | Mn (mean fluorescence intensity) [12]: 733
Substance: PelB-Fc-cFos(Cys)-His

Mn (mean fluorescence intensity) [13]: 837 | Mn (mean fluorescence intensity) [14]: 244
Substance: PelB-Fc-cFos-His

Kd [15]: 18 nM
Substance: commercially available glycosylated human IgG1 (antibody)
